# fmk = not defined here
# B1: caspase-3 (wild type) (protein)
# chain: MENTENSVDSKSIKNLEPKIIHGSESMDSGISLDNSYKMDYPEMGLCIIINNKNFHKSTGMTSRSGTDVDAANLRETFRNLKYEVRNKNDLTREEIVELMRDVSKEDHSKRSSFVCVLLSHGEEGIIFGTNGPVDLKKITNFFRGDRCRSLTGKPKLFIIQACRGTELDCGIETDSGVDDDMACHKIPVDADFLYAYSTAPGYYSWRNSKDGSWFIQSLCAMLKQYADKLEFMHILTRVNRKVATEFESFSFDATFHAKKQIPCIVSMLTKELYFYH
# B2: rev-caspase-6 (protein)
# chain: MVEIDAASVYTLPAGADFLMCYSVAEGYYSHRETVNGSWYIQDLCEMLGKYGSSLEFTELLTLVNRKVSQRRVDFCKDPSAIGKKQVPCFASMLTKKLHFFPKSNLEHHHHHHVEIDGGSPMSSASGLRRGHPAGGEENMTETDAFYKREMFDPAEKYKMDHRRRGIALIFNHERFFWHLTLPERRGTCADRDNLTRRFSDLGFEVKCFNDLKAEELLLKIHEVSTVSHADADCFVCVFLSHGEGNHIYAYDAKIEIQTLTGLFKGDKCHSLVGKPKIFIIQACRGNQHDVPVIPLDVVD
# B3: caspase-6 (wild type) (protein)
# chain: MSSASGLRRGHPAGGEENMTETDAFYKREMFDPAEKYKMDHRRRGIALIFNHERFFWHLTLPERRGTCADRDNLTRRFSDLGFEVKCFNDLKAEELLLKIHEVSTVSHADADCFVCVFLSHGEGNHIYAYDAKIEIQTLTGLFKGDKCHSLVGKPKIFIIQACRGNQHDVPVIPLDVVDNQTEKLDTNITEVDAASVYTLPAGADFLMCYSVAEGYYSHRETVNGSWYIQDLCEMLGKYGSSLEFTELLTLVNRKVSQRRVDFCKDPSAIGKKQVPCFASMLTKKLHFFPKSN
# B4: rev-caspase-3 (protein)
# chain: MIETDSGVDDDMACHKIPVEADFLYAYSTAPGYYSWRNSKDGSWFIQSLCAMLKQYADKLEFMHILTRVNRKVATEFESFSFDATFHAKKQIPCIVSMLTKELYFYHDEVDGGSPMENTENSVDSKSIKNLEPKIIHGSESMDSGISLDNSYKMDYPEMGLCIIINNKNFHKSTGMTSRSGTDVDAANLRETFRNLKYEVRNKNDLTREEIVELMRDVSKEDHSKRSSFVCVLLSHGEEGIIFGTNGPVDLKKITNFFRGDRCRSLTGKPKLFIIQACRGTELDCGIETD
# Molecular target: poly(ADP) ribose polymerase (PARP), P09874
# Experiment: not given
# Sequence of poly(ADP) ribose polymerase (PARP), P09874 (P09874 whole entry, looked up): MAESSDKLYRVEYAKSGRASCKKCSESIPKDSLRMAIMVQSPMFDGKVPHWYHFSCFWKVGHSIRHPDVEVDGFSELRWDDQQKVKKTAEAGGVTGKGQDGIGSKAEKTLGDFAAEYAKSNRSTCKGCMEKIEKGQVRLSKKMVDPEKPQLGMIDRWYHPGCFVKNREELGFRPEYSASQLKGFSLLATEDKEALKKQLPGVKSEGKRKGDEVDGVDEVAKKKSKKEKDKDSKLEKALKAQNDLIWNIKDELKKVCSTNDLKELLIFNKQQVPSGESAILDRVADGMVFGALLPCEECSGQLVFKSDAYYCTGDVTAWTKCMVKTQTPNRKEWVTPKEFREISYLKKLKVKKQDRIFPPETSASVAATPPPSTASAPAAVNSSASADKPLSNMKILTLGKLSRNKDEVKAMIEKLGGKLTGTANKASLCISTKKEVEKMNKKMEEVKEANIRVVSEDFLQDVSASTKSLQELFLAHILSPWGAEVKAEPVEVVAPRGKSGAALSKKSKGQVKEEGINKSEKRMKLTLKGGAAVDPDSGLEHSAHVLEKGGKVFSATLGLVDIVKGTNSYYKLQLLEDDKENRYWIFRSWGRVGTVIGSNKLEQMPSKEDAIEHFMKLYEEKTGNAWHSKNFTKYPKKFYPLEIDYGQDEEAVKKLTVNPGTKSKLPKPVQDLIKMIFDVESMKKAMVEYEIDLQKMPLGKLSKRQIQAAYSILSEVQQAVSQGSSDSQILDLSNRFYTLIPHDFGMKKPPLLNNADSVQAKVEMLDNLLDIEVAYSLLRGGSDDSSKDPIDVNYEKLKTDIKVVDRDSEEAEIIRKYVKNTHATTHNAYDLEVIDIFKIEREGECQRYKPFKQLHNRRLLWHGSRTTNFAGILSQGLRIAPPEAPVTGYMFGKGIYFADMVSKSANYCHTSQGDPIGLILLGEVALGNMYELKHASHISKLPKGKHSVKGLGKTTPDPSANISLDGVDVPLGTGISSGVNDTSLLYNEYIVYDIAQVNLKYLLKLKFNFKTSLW
row,Binder,"substrate cleavage (bacterial extract incubated with purified PARP, Western blot)"
1,B1,"Both caspase-3 variants (rev and WT), but not caspase-6 variants efficiently cleaved PARP"
2,B2,"Both caspase-3 variants (rev and WT), but not caspase-6 variants efficiently cleaved PARP"
3,B3,"Both caspase-3 variants (rev and WT), but not caspase-6 variants efficiently cleaved PARP"
4,B4,"Both caspase-3 variants (rev and WT), but not caspase-6 variants efficiently cleaved PARP"

# Molecular target: T1, C-terminus of lamin A, P02545
# T1 chain: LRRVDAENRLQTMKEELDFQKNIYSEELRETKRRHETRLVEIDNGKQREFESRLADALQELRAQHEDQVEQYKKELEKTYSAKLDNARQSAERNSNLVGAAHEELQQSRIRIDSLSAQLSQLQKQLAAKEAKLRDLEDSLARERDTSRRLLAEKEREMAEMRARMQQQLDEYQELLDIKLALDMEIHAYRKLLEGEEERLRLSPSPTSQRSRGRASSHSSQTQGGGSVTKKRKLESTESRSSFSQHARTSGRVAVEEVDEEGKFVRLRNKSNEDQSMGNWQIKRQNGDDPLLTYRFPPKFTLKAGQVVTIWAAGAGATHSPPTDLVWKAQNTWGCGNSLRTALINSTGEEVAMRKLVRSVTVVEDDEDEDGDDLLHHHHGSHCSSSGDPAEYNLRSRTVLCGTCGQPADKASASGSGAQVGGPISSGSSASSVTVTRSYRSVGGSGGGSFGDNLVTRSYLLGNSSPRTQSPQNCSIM
# Experiment: not given
row,Binder,"substrate cleavage (bacterial extract incubated with 35S-labelled lamin A C-terminus, autoradiography)"
1,B1,"both caspase-6 variants, but not caspase-3 variants efficiently cleaved lamin"
2,B2,"both caspase-6 variants, but not caspase-3 variants efficiently cleaved lamin"
3,B3,"both caspase-6 variants, but not caspase-3 variants efficiently cleaved lamin"
4,B4,"both caspase-6 variants, but not caspase-3 variants efficiently cleaved lamin"

# Molecular target: T2, rev-caspase-3 (human, UniProt P42574 1-175, limits assumed)
# T2 sequence: B4 chain
# Experiment: cell-based or functional assay
row,Binder,"amount of inhibitor required for complete inhibition, relative to DEVD-CHO"
1,{code z}-Val-Ala-Asp-fmk (reading uncertain; also: printed as z-VAD-fmk) [z-VAD-fmk],~10 fold

# Source: patent US6379950 (THOMAS JEFFERSON UNIVERSITY, dated 2002)
